Experimental data published in paper PMC5607398, “Neisseria cinerea Expresses a Functional Factor H Binding Protein Which Is Recognized by Immune Responses Elicited by Meningococcal Vaccines” (Infection and Immunity, 2017).

B1: Neisseria meningitidis V1.1 factor H binding protein (V1.1 fHbp), recombinant (natural protein)
chain: GGVAADIGAGLADALTAPLDHKDKGLQSLTLDQSVRKNEKLKLAAQGAEKTYGNGDSLNTGKLKNDKVSRFDFIRQIEVDGQLITLESGEFQVYKQSHSALTAFQTEQIQDSEHSGKMVAKRQFRIGDIAGEHTSFDKLPEGGRATYRGTAFGSDDAGGKLTYTIDFAAKQGNGKIEHLKSPELNVDLAAADIKPDGKRHAVISGSVLYNQAEKGSYSLGIFGGKAQEVAGSAEVKTVNGIRHIGLAAKQ
notes: source: E. coli BL21(DE3), pET21b, purified (HisTrap, anion exchange)
B2: recombinant CFH6–7 (CCP domains 6 and 7 of complement factor H) (domain or fragment, human)
chain: TLKPCDYPDIKHGGLYHENMRRPYFPVAVGKYYSYYCDEHFETPSGSYWDHIHCTQDGWSPAVPCLRKCYFPYLENGYNQNYGRKFVQGKSIDVACHPGYALPKAQTTVTCMENGWSPTPRCI

Columns and labels:
[1] = biological target: full-length human CFH (Sigma) (UniProt P08603); test: ELISA; details: read off a plot
[2] = biological target: Neisseria cinerea CCUG 346T factor H binding protein (V1.110 fHbp), recombinant (Neisseria cinerea); test: SPR
[3] = biological target: T1, full-length human CFH (Sigma) (human, UniProt P08603 19-1231); test: ELISA; plates coated with recombinant fHbp (3 ug/ml); full-length human CFH (Sigma) in 2-fold dilutions from 10 ug/ml; detected with anti-CFH antibody; details: both partners purified
T1 construct: also called full-length CFH; source: bought: Sigma

[4] = biological target: B1; test: SPR; details: both partners purified

“Neisseria meningitidis V1.1 factor H binding protein (V1.1 fHbp), recombinant (from UniProt Q9JXV4) I311A” showed a response ([1]; CFH 1.25 µg/ml (x position estimated), parent: est. 0.35) of 0.073 OD 450nm, a response ([1]; CFH 2.5 µg/ml, parent: est. 0.40) of 0.082 OD 450nm and a response ([1]; CFH 5 μg/ml, parent: est. 0.40) of 0.082 OD 450nm. It also gave a response ([1]; CFH 5 µg/ml, parent: est. 0.41) of 0.11 OD 450nm and a response ([1]; CFH 10 µg/ml, parent: est. 0.47) of 0.19 OD 450nm.

Work on “recombinant CFH6–7 (CCP domains 6 and 7 of complement factor H) (from UniProt P08603 321-443) (domain or fragment)” yielded a Kd [2] of 3.5 nM.

B1: binds [3].

For B2, the Kd [4] was 3 ± 0.5 nM.
